Laboratory results from patent publication US20210260070A1, “LYSIN CF-301 RESENSITIZES METHICILLIN-RESISTANT STAPHYLOCOCCUS AUREUA (MRSA) TO PENICILLIN DERIVATIVES AND FIRST GENERATION CEPHALOSPORINS” (priority 2018, published 2021).
“And” between values parts separate entries of the source, which are not always exact repeats. Identical values can stand only once.

What was measured:
MRSA strain ATCC 33591 = experiment: Broth microdilution checkerboard assay; assay type: cell-based, Staphylococcus aureus; parameters: unit not given here; settings: for MICinitial: each agent alone (initial); for MICfinal: * = Resensitization
Excerpt: (§1) In some embodiments, the present lysin polypeptides reduce the minimum inhibitory concentration (MIC) of an antibiotic. Any known method to assess MIC may be used. In some embodiments, a checkerboard assay is used to determine the effect of a lysin on antibiotic concentration. The checkerboard assay is based on a modification of the CLSI method for MIC determination by broth microdilution (See Clinical and Laboratory Standards Institute (CLSI), CLSI. 2015. Methods for Dilution Antimicrobial Susceptibility Tests for Bacteria That Grow Aerobically; Approved Standard-10th Edition. Clinical and Laboratory Standards Institute, Wayne, Pa., which is herein incorporated by reference in its entirety and Ceri et al. 1999. J. Clin. Microbiol. 37: 1771-1776, which is also herein incorporated by reference in its entirety).
(§2) Checkerboards are constructed by first preparing columns of e.g., a 96-well polypropylene microtiter plate, wherein each well has the same amount of antibiotic diluted 2-fold along the horizontal axis. […] The lysin and antibiotic dilutions are then combined, so that each column has a constant amount of antibiotic and doubling dilutions of lysin, while each row has a constant amount of lysin and doubling dilutions of antibiotic. Each well thus has a unique combination of lysin and antibiotic. Bacteria are added to the drug combinations at a given concentration. […] Summation fractional inhibitory concentrations (ΣFICs) are calculated for each drug and the minimum ΣFIC value (ΣFICmin) is used to determine the effect of the lysin/antibiotic combination.
(§3) A step-wise approach was used to evaluate PlySs2 as a resensitizing agent. First, broth microdilution checkerboard assays were used to determine fractional inhibitory concentration index (FICI) values for combinations of PlySs2 with three β-lactam antibiotics [oxacillin (OXA), nafcillin (NAF), and cefazoline (CFZ)] against nine different MRSA strains. Data from the checkerboard assays were generated to determine the interaction and potency of PlySs2 with the β-lactam antibiotics in comparison to their individual activities. This comparison is represented as the FICI value, whereby values of ≤0.5 are consistent with synergy, values of >0.5-<1 are highly-additive, values of 1-≤2 are indifferent, and values >2 are antagonistic. Representative single agent MICs are also shown, determined for each agent alone (initial) and in combinations (final). Resensitization occurs in synergistic combinations in which the β-lactam antibiotic MIC values fall below established breakpoints, e.g. a MIC value of ≤2 for β-lactam-sensitive isolates, a MIC value of ≥4 for β-lactam-resistant isolates. See Clinical and Laboratory Standards Institute (CLSI), CLSI. 2019. M100 Performance Standards for Antimicrobial Susceptibility Testing; 29th Edition. Clinical and Laboratory Standards Institute, Wayne, Pa.

MRSA strain ATCC 43300 = experiment: Broth microdilution checkerboard assay; assay type: cell-based, Staphylococcus aureus; parameters: unit not given here; settings: for MICinitial: each agent alone (initial); for MICfinal: * = Resensitization
Excerpt: as §1, §2, §3

MRSA strain CAIRD 426 = experiment: Broth microdilution checkerboard assay; assay type: cell-based, Staphylococcus aureus; parameters: unit not given here; settings: for MICinitial: each agent alone (initial); for MICfinal: * = Resensitization
Excerpt: as §1, §2, §3

MRSA strain HPV 107 = experiment: Broth microdilution checkerboard assay; assay type: cell-based, Staphylococcus aureus; parameters: unit not given here; settings: for MICinitial: each agent alone (initial); for MICfinal: * = Resensitization
Excerpt: as §1, §2, §3

MRSA strain JMI 1280 = experiment: Broth microdilution checkerboard assay; assay type: cell-based, Staphylococcus aureus; parameters: unit not given here; settings: for MICinitial: each agent alone (initial); for MICfinal: * = Resensitization
Excerpt: as §1, §2, §3

MRSA strain JMI 227 = experiment: Broth microdilution checkerboard assay; assay type: cell-based, Staphylococcus aureus; parameters: unit not given here; settings: for MICinitial: each agent alone (initial); for MICfinal: * = Resensitization
Excerpt: as §1, §2, §3

MRSA strain JMI4789 = experiment: Broth microdilution checkerboard assay; assay type: cell-based, Staphylococcus aureus; parameters: unit not given here; settings: for MICinitial: each agent alone (initial); for MICfinal: * = Resensitization
Excerpt: as §1, §2, §3

MRSA strain MW2 = experiment: Broth microdilution checkerboard assay; assay type: cell-based, Staphylococcus aureus; parameters: unit not given here; settings: for MICinitial: each agent alone (initial); for MICfinal: * = Resensitization
Excerpt: as §1, §2, §3

MRSA strain NRS 11 = experiment: Broth microdilution checkerboard assay; assay type: cell-based, Staphylococcus aureus; parameters: unit not given here; settings: for MICinitial: each agent alone (initial); for MICfinal: * = Resensitization
Excerpt: as §1, §2, §3

[1] = tested on: nine different MRSA strains; experiment: Broth microdilution checkerboard assays, summary over the panel; assay type: cell-based, Staphylococcus aureus; settings: each of the nine MRSA strains; breakpoint MIC ≤2 sensitive
Excerpt: as §1, §2
A step-wise approach was used to evaluate PlySs2 as a resensitizing agent. First, broth microdilution checkerboard assays were used to determine fractional inhibitory concentration index (FICI) values for combinations of PlySs2 with three β-lactam antibiotics [oxacillin (OXA), nafcillin (NAF), and cefazoline (CFZ)] against nine different MRSA strains. […] Representative single agent MICs are also shown, determined for each agent alone (initial) and in combinations (final). […]

S. aureus strain MW2 = experiment: MIC of parental strain; assay type: cell-based, Staphylococcus aureus
Method: (§4) An ex vivo analysis was performed on tissue samples recovered after PlySs2 treatment in a standard rabbit model of MRSA infective endocarditis (IE), as disclosed in Xiong et al., Comparative efficacy of telavancin and daptomycin in experimental endocarditis due to multi-clonotype MRSA strains, J. ANTIMIC. CHEMO. (2016); 71(1):2890-94. The standard rabbit IE model was used to confirm the impact of PlySs2 treatment on oxacillin MICs. Four days after treatment with a single-dose of PlySs2 (0.18 mg/kg to 1.4 mg/kg) in the IE model, isolates were recovered from valvular vegetations and plated on TSAB (non-selective condition, Tables 3 and 4) and TSAB supplemented with PlySs2 over a range of concentrations (selective conditions, Tables 5 and 6). MIC values of the MRSA isolates were determined for both PlySs2 and oxacillin. Tables 3 and 4 below show the MICs calculated for PlySs2 and oxacillin, respectively, for valvular vegetations subject to the non-selective conditions.

MRSA = experiment: Standard rabbit model of MRSA infective endocarditis (IE), CFU in valvular vegetations; assay type: in vivo, Staphylococcus aureus
Method: as §4

[2] = in combination PlySs2 + OXA (final)
[3] = in combination PlySs2 + CFZ (final)
[4] = in combination PlySs2 + NAF (final)

Cc1onc(-c2ccccc2)c1C(=O)N[C@@H]1C(=O)N2[C@@H]1SC(C)(C)[C@@H]2C(=O)O [OXA, oxacillin]
MICinitial (MRSA strain ATCC 33591): 256
MICfinal (MRSA strain ATCC 33591; [2]): 1*
MICinitial (MRSA strain ATCC 43300): 8
MICfinal (MRSA strain ATCC 43300; [2]): 0.5*
MICinitial (MRSA strain CAIRD 426): 4
MICfinal (MRSA strain CAIRD 426; [2]): 1*
MICinitial (MRSA strain HPV 107): 8
MICfinal (MRSA strain HPV 107; [2]): 0.5*
MICinitial (MRSA strain JMI 1280): 256
MICfinal (MRSA strain JMI 1280; [2]): 1*
MICinitial (MRSA strain JMI 227): 16
MICfinal (MRSA strain JMI 227; [2]): 1*
MICinitial (MRSA strain JMI4789): 64
MICfinal (MRSA strain JMI4789; [2]): 2*
MICinitial (MRSA strain MW2): 64
MICfinal (MRSA strain MW2; [2]): 2*
MICinitial (MRSA strain NRS 11): 256
MICfinal (MRSA strain NRS 11; [2]): 2*
MIC in synergistic combination with PlySs2 relative to breakpoint [1]: below breakpoint values
MIC (S. aureus strain MW2; Staphylococcus aureus, MW2): 32 µg/mL

B1: PlySs2: bacteriophage lysin derived from Streptococcus suis, amino acid sequence SEQ ID NO: 1 (245 residues) (protein, listed as Streptococcus suis)
chain: MTTVNEALNNVRAQVGSGVSVGNGECYALASWYERMISPDATVGLGAGVGWVSGAIGDTISAKNIGSSYNWQANGWTVSTSGPFKAGQIVTLGATPGNPYGHVVIVEAVDGDRLTILEQNYGGKRYPVRNYYSAASYRQQVVHYITPPGTVAQSAPNLAGSRSYRETGTMTVTVDALNVRRAPNTSGEIVAVYKRGESFDYDTVIIDVNGYVWVSYIGGSGKRNYVATGATKDGKRFGNAWGTFK
MICinitial (MRSA strain ATCC 33591): 1
MICfinal (MRSA strain ATCC 33591; [3]): 0.25
MICfinal (MRSA strain ATCC 33591; [4]): 1.125
MICfinal (MRSA strain ATCC 33591; [2]): 0.25
MICinitial (MRSA strain ATCC 43300): 1
MICfinal (MRSA strain ATCC 43300; [3]): 0.125
MICfinal (MRSA strain ATCC 43300; [4]): 0.125
MICfinal (MRSA strain ATCC 43300; [2]): 0.25
MICinitial (MRSA strain CAIRD 426): 1
MICfinal (MRSA strain CAIRD 426; [3]): 0.25
MICfinal (MRSA strain CAIRD 426; [4]): 0.25
MICfinal (MRSA strain CAIRD 426; [2]): 0.25
MICinitial (MRSA strain HPV 107): 1
MICfinal (MRSA strain HPV 107; [3]): 0.125
MICfinal (MRSA strain HPV 107; [4]): 0.25
MICfinal (MRSA strain HPV 107; [2]): 0.25
MICinitial (MRSA strain JMI 1280): 1
MICfinal (MRSA strain JMI 1280; [3]): 0.25
MICfinal (MRSA strain JMI 1280; [4]): 0.25
MICfinal (MRSA strain JMI 1280; [2]): 0.25
MICinitial (MRSA strain JMI 227): 1
MICfinal (MRSA strain JMI 227; [3]): 0.25
MICfinal (MRSA strain JMI 227; [4]): 0.25
MICfinal (MRSA strain JMI 227; [2]): 0.25
MICinitial (MRSA strain JMI4789): 1
MICfinal (MRSA strain JMI4789; [3]): 0.125
MICfinal (MRSA strain JMI4789; [4]): 0.125
MICfinal (MRSA strain JMI4789; [2]): 0.25
MICinitial (MRSA strain MW2): 1 and 2
MICfinal (MRSA strain MW2; [3]): 0.125
MICfinal (MRSA strain MW2; [4]): 0.5
MICfinal (MRSA strain MW2; [2]): 0.25
MICinitial (MRSA strain NRS 11): 1
MICfinal (MRSA strain NRS 11; [3]): 0.25
MICfinal (MRSA strain NRS 11; [4]): 0.25
MICfinal (MRSA strain NRS 11; [2]): 0.25
Log10 CFU/g of Vegetation (MRSA; PlySs2 0.18 mg/kg, TSAB supplemented with PlySs2, 128 (unit not given)): 4.6 ± 0.7 Log10 CFU/g
Log10 CFU/g of Vegetation (MRSA; PlySs2 0.18 mg/kg, TSAB supplemented with PlySs2, column 16 (unit not printed)): 7.1 ± 0.1 Log10 CFU/g
Log10 CFU/g of Vegetation (MRSA; PlySs2 0.18 mg/kg, TSAB supplemented with PlySs2, column 32 (unit not printed)): 7.1 ± 0.1 Log10 CFU/g
Log10 CFU/g of Vegetation (MRSA; PlySs2 0.18 mg/kg, TSAB supplemented with PlySs2, column 64 (unit not given)): 6.6 ± 0.9 Log10 CFU/g
Log10 CFU/g of Vegetation (MRSA; PlySs2 0.35 mg/kg, TSAB supplemented with PlySs2, 128 (unit not given)): 3.4 ± 1.3 Log10 CFU/g
Log10 CFU/g of Vegetation (MRSA; PlySs2 0.35 mg/kg, TSAB supplemented with PlySs2, column 16 (unit not printed)): 6.9 ± 0.2 Log10 CFU/g
Log10 CFU/g of Vegetation (MRSA; PlySs2 0.35 mg/kg, TSAB supplemented with PlySs2, column 32 (unit not printed)): 6.4 ± 0.5 Log10 CFU/g
Log10 CFU/g of Vegetation (MRSA; PlySs2 0.35 mg/kg, TSAB supplemented with PlySs2, column 64 (unit not given)): 5.5 ± 0.6 Log10 CFU/g
Log10 CFU/g of Vegetation (MRSA; PlySs2 0.7 mg/kg, TSAB supplemented with PlySs2, 128 (unit not given)): <2.1 ± 0.1 Log10 CFU/g
Log10 CFU/g of Vegetation (MRSA; PlySs2 0.7 mg/kg, TSAB supplemented with PlySs2, column 16 (unit not printed)): 6.7 ± 0.1 Log10 CFU/g
Log10 CFU/g of Vegetation (MRSA; PlySs2 0.7 mg/kg, TSAB supplemented with PlySs2, column 32 (unit not printed)): 5.7 ± 1.1 Log10 CFU/g
Log10 CFU/g of Vegetation (MRSA; PlySs2 0.7 mg/kg, TSAB supplemented with PlySs2, column 64 (unit not given)): 3.8 ± 1.8 Log10 CFU/g
Log10 CFU/g of Vegetation (MRSA; PlySs2 1.4 mg/kg, TSAB supplemented with PlySs2, 128 (unit not given)): 2.8 ± 1.2 Log10 CFU/g
Log10 CFU/g of Vegetation (MRSA; PlySs2 1.4 mg/kg, TSAB supplemented with PlySs2, column 16 (unit not printed)): 7.1 ± 0.06 Log10 CFU/g
Log10 CFU/g of Vegetation (MRSA; PlySs2 1.4 mg/kg, TSAB supplemented with PlySs2, column 32 (unit not printed)): 5.9 ± 0.03 Log10 CFU/g
Log10 CFU/g of Vegetation (MRSA; PlySs2 1.4 mg/kg, TSAB supplemented with PlySs2, column 64 (unit not given)): 4.2 ± 1.7 Log10 CFU/g
Log10 CFU/g of Vegetation (MRSA; single dose PlySs2 0.18 mg/kg, four days after treatment, TSAB non-selective (0)): 8.65 ± 0.58 Log10 CFU/g
Log10 CFU/g of Vegetation (MRSA; single dose PlySs2 0.35 mg/kg, four days after treatment, TSAB non-selective (0)): 8.17 ± 0.58 Log10 CFU/g
Log10 CFU/g of Vegetation (MRSA; single dose PlySs2 0.7 mg/kg, four days after treatment, TSAB non-selective (0)): 7.93 ± 0.12 Log10 CFU/g
Log10 CFU/g of Vegetation (MRSA; single dose PlySs2 1.4 mg/kg, four days after treatment, TSAB non-selective (0)): 8.24 ± 0.02 Log10 CFU/g
MIC of S. aureus strain MW2 (S. aureus strain MW2): 1 µg/mL
